For this assay, the target named is extended E34 TSP (E34 phage tailspike protein with the N-terminal 43 amino acid fusion peptide) (E34 phage). In words: SDS-PAGE of unheated against unfolded samples.

Turning to “extended E34 TSP (E34 phage tailspike protein with the N-terminal 43 amino acid fusion peptide) (natural protein)”, the stoichiometry N is 3.

(Values after doi:10.1101/2021.09.20.461090.)
